Assay results published in patent US20060088890A1.

Key:
[1] = target: angiotensin converting enzyme (ACE) (human) (UniProt P12821); test: indirect immunofluorescence flow cytometry, UT7 cells, BB9 at 20 µg/mL; grade = proportion of positive cells
[2] = target: angiotensin converting enzyme (ACE) (human) (UniProt P12821); test: indirect immunofluorescence flow cytometry, KG-1 cells, BB9 at 20 µg/mL; grade = proportion of positive cells
[3] = target: angiotensin converting enzyme (ACE) (human) (UniProt P12821); test: indirect immunofluorescence flow cytometry, MG63 cells, BB9 at 20 µg/mL; grade = proportion of positive cells
[4] = target: angiotensin converting enzyme (ACE) (human) (UniProt P12821); test: indirect immunofluorescence flow cytometry, dermal fibroblasts, BB9 at 20 µg/mL; grade = proportion of positive cells
[5] = target: angiotensin converting enzyme (ACE) (human) (UniProt P12821); test: indirect immunofluorescence flow cytometry, K562 cells, BB9 at 20 µg/mL; grade = proportion of positive cells
[6] = target: angiotensin converting enzyme (ACE) (human) (UniProt P12821); test: indirect immunofluorescence flow cytometry, Nalm-6 cells, BB9 at 20 µg/mL; grade = proportion of positive cells
[7] = target: angiotensin converting enzyme (ACE) (human) (UniProt P12821); test: indirect immunofluorescence flow cytometry, MCF-7 cells, BB9 at 20 µg/mL; grade = proportion of positive cells
[8] = target: angiotensin converting enzyme (ACE) (human) (UniProt P12821); test: indirect immunofluorescence flow cytometry, HL60 cells, BB9 at 20 µg/mL; grade = proportion of positive cells
[9] = target: angiotensin converting enzyme (ACE) (human) (UniProt P12821); test: indirect immunofluorescence flow cytometry, Hi MEG cells, BB9 at 20 µg/mL; grade = proportion of positive cells
[10] = target: angiotensin converting enzyme (ACE) (human) (UniProt P12821); test: indirect immunofluorescence flow cytometry, MEG-01 cells, BB9 at 20 µg/mL; grade = proportion of positive cells
[11] = target: angiotensin converting enzyme (ACE) (human) (UniProt P12821); test: indirect immunofluorescence flow cytometry, RC2A cells, BB9 at 20 µg/mL; grade = proportion of positive cells
[12] = target: angiotensin converting enzyme (ACE) (human) (UniProt P12821); test: indirect immunofluorescence flow cytometry, U937 cells, BB9 at 20 µg/mL; grade = proportion of positive cells
[13] = target: angiotensin converting enzyme (ACE) (human) (UniProt P12821); test: indirect immunofluorescence flow cytometry, HEL-DR cells, BB9 at 20 µg/mL; grade = proportion of positive cells

Sequence of UniProt P12821 (P12821 30-1306): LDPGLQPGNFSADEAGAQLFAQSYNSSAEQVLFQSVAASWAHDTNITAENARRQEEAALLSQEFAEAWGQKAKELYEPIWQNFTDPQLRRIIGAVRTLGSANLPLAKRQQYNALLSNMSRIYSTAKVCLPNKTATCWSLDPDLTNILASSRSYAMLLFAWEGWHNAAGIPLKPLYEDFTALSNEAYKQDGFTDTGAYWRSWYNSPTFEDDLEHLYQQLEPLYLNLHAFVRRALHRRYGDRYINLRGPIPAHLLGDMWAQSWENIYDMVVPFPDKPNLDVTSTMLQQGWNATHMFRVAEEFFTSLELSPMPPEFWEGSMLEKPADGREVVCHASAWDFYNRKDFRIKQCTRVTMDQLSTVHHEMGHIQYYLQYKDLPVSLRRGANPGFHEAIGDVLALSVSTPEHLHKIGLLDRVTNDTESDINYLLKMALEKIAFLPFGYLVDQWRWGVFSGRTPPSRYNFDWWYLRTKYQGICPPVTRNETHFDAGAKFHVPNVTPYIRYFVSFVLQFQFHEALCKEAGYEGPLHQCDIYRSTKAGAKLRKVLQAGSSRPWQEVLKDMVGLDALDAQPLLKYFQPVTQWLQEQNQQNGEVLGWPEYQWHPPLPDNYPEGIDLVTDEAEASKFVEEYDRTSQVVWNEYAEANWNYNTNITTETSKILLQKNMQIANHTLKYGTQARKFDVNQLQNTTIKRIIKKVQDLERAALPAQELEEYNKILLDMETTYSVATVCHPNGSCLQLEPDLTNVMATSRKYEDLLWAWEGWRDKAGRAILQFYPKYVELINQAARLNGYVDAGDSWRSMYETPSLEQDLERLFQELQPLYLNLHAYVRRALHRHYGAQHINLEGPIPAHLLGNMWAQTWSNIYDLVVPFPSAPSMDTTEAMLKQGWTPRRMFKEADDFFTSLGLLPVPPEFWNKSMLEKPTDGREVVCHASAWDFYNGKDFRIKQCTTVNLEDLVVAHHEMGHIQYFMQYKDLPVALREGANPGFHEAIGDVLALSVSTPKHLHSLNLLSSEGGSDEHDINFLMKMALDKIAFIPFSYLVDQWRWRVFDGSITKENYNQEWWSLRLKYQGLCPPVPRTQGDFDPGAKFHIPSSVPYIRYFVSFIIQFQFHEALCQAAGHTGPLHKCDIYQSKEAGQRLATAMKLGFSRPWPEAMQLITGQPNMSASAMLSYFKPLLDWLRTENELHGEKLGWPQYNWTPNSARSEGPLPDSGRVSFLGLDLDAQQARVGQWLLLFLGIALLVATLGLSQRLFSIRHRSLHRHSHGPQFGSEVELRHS

monoclonal antibody BB9 showed a proportion of BB9 positive cells [1] of 35 to 80%, a proportion of BB9 positive cells [2] of 5 to 35% and a proportion of BB9 positive cells [3] of 35 to 80%. The proportion of BB9 positive cells [4] was 80 to 100%, the proportion of BB9 positive cells [5] was 35 to 80% and the proportion of BB9 positive cells [6] was 5 to 35%. For the same substance, the proportion of BB9 positive cells [7] was 5 to 35%, the proportion of BB9 positive cells [8] was 35 to 80% and the proportion of BB9 positive cells [9] was 5 to 35%. For the same substance, the proportion of BB9 positive cells [10] was 35 to 80%, the proportion of BB9 positive cells [11] was 5 to 35% and the proportion of BB9 positive cells [12] was 5 to 35%. The proportion of BB9 positive cells [13] was 35 to 80%.
